We go through nine compounds from US20260248972A1, “DUAL RECEPTOR TARGETING RADIOLIGANDS AND USES THEREOF RELATED APPLICATIONS” (priority 2022, published 2026).

Molecules are shown by their SMILES.

As a reminder, the tissue uptake is the share of the injected amount in each gram of the tissue.

Data set [1] concerns the target T1, CCK2R (Homo sapiens, UniProt P32239).
T1 construct: expressed in transfected cells; host or cells: HEK 293T cells
T1 sequence (P32239 1-447): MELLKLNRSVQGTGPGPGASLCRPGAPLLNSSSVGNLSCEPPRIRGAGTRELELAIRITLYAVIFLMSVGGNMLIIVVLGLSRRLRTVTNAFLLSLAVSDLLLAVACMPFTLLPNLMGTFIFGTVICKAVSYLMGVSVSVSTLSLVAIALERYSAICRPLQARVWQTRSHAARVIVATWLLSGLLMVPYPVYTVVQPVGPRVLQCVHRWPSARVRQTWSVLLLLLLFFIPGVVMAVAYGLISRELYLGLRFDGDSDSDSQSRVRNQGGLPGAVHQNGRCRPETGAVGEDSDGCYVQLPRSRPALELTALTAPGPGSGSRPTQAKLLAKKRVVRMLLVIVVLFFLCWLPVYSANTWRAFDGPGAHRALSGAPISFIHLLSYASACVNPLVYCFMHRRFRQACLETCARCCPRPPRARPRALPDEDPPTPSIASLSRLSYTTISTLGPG
Description: Competitive binding (FACS) on CCK2R-transfected HEK 293T cells with Cy5-labeled Z360. As to conditions: HEK 293T transfected, Cy5-labeled Z360 competitive ligand (Table 3). The procedure:
Binding Affinity Tested by Using Cy5-Labled Competitive Ligands.
HEK 293T cells were transfected with SSTR2 or CCK2R-expressing plasmid by Lipofectamine 2000 reagent. 24 hours after transfection, cells were harvested and suspended with assay buffer (1% OVA in DMEM). […] The testing compound was further supplemented into the wells at different concentrations. After incubation for 1 hour at dark, cells were washed and suspended in FACS buffer (1% OVA in DPBS). The fluorescent signal was detected by FACS machine and the binding affinity of the testing compound was evaluated by calculation of IC50 for competitive binding of reference compound.

A short description of the next data set: in vivo. As to conditions: BALB/c nude, mouse, in vivo, iv, total radioactivity. The method in brief: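 Compounds labelled with ^177Lu in 0.5 M NaOAc pH 4.5 at 95° C for 15 min, then used directly or diluted in PBS with 3 mg/mL ascorbate. BALB/c nude mice bore subcutaneous AR42J flank xenografts (0.05-0.50 g). Organs excised at 4, 24 and 72 h post-injection and γ-counted for % ID and % ID/g.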

For another data set, the target named is T2, SSTR2 (Rattus norvegicus, UniProt P30680).
T2 construct: host or cells: AR42J cells
Description: Competitive cell-binding assay on AR42J cells with 125I-C1 as competitive ligand. As to conditions: AR42J cells, 125I-C1 competitive ligand, 37° C. 1 h; read-out: SSTR2/IC50. The method in brief:
(§1)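 Rat AR42J cells (1~3×10^6 cells/mL) in RPMI-1640 with 0.25% BSA incubated with 125I-C1 or 125I-C3 (0.02 μCi/well) plus test compound (0-10000 nM) for 1 h at 37° C., n=3. Unbound ligand removed by filtration; bound radioactivity γ-counted; IC50 by nonlinear regression.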

For data set [2], the target named is T3, CCK2R (Rattus norvegicus, UniProt P30553).
T3 construct: host or cells: AR42J cells
T3 sequence (P30553 1-452): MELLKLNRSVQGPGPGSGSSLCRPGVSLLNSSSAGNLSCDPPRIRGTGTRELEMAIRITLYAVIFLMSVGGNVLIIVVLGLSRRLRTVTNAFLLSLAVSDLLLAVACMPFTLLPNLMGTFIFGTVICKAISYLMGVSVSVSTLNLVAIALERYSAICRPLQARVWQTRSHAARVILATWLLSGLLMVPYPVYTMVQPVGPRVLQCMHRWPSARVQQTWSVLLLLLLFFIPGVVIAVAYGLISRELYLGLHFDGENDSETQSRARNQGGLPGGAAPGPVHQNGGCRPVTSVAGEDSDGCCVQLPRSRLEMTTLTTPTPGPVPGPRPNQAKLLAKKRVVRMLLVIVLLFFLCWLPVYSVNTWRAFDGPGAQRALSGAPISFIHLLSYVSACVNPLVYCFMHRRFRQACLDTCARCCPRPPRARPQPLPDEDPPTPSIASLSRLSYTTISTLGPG
Description: Competitive cell-binding assay on AR42J cells with 125I-C3 as competitive ligand. The note with it: AR42J cells, 125I-C3 competitive ligand, 37° C. 1 h; read-out: CCK2R/IC50. The method in brief:
as §1

The target of data set [3] is T1, CCK2R. As to the kind of experiment: Competitive binding (FACS) on CCK2R-transfected HEK 293T cells with Cy5-labeled F11N derivative. The note with it: HEK 293T transfected, Cy5-labeled F11N derivative competitive ligand (Table 4); read-out: CCK2R IC50.

T2 sequence (P30680 whole entry): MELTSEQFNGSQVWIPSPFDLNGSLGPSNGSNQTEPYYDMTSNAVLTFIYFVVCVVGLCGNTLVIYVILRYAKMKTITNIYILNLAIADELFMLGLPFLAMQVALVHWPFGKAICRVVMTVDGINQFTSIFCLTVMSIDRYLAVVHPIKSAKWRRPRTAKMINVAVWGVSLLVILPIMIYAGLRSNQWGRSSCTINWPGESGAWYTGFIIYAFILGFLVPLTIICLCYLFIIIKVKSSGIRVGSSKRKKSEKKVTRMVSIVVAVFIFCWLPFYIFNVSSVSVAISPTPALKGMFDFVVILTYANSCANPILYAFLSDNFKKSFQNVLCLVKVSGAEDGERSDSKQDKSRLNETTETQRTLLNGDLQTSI

`CC(O)[C@H](NC(=O)[C@@H]1CSSC[C@H](NC(=O)[C@@H](Cc2ccccc2)NC(=O)COCCOCCNC(=O)[C@H](CCCCNC(=O)CCC(NC(=O)CNC(=O)c2cccc(NC(=O)N[C@@H]3CN(C4CCCCC4)c4ccccc4N(CC(=O)C(C)(C)C)C3=O)c2)C(=O)O)NC(=O)COCCOCCNC(=O)COCCOCCNC(=O)CC[C@H](NC(=O)CN2CCN(CC(=O)O)CCN(CC(=O)O)CCN(CC(=O)O)CC2)C(=O)O)C(=O)N[C@@H](Cc2ccc(O)cc2)C(=O)N[C@H](Cc2c[nH]c3ccccc23)C(=O)N[C@@H](CCCCN)C(=O)N[C@@H]([C@@H](C)O)C(=O)N1)C(=O)O` (stereo in doubt) [Compound I-21, DOTA-gE-OEG-OEG-K(-gE-G-Z360)-OEG-f[CYwKTC]T-OH] gave an IC50 on CCK2R [1] of 7.13 nM.

At CCK2R [1], `C[C@@H](O)[C@H](NC(=O)[C@@H]1CSSC[C@H](NC(=O)[C@@H](Cc2ccccc2)NC(=O)COCCOCCNC(=O)[C@H](CCCCNC(=O)CC[C@H](NC(=O)CNC(=O)c2cccc(NC(=O)N[C@@H]3CN(C4CCCCC4)c4ccccc4N(CC(=O)C(C)(C)C)C3=O)c2)C(=O)O)NC(=O)CN2CCN(CC(=O)O)CCN(CC(=O)O)CCN(CC(=O)O)CC2)C(=O)N[C@@H](Cc2ccc(O)cc2)C(=O)N[C@H](Cc2c[nH]c3ccccc23)C(=O)N[C@@H](CCCCN)C(=O)N[C@@H]([C@@H](C)O)C(=O)N1)C(=O)O` [Compound I-1, DOTA-K(-gE-G-Z360)-OEG-f[CYwKTC]T-OH] displayed an IC50 of 7.32 nM. In addition, the tissue uptake at 24 h in the data set “in vivo” (uptake Kidney) turned out to be 14 %ID/g; in the data set “in vivo” (uptake Liver) it was 2.86 %ID/g; in the data set “in vivo” (uptake Pancreas) it was 1.6 %ID/g; in “in vivo” (uptake Spleen), 1.6 %ID/g; in the data set “in vivo” (uptake Stomach), 2.53 %ID/g; in the data set “in vivo” (uptake Tumor) it was 17.1 %ID/g.

Turning to `C[C@@H](O)[C@H](NC(=O)[C@@H]1CSSC[C@H](NC(=O)[C@@H](Cc2ccccc2)NC(=O)[C@H](CCCCNC(=O)[C@H](CCC(=O)O)NC(=O)c2cccc(NC(=O)N[C@@H]3CN(C4CCCCC4)c4ccccc4N(CC(=O)C(C)(C)C)C3=O)c2)NC(=O)CN2CCN(CC(=O)O)CCN(CC(=O)O)CCN(CC(=O)O)CC2)C(=O)N[C@@H](Cc2ccc(O)cc2)C(=O)N[C@H](Cc2c[nH]c3ccccc23)C(=O)N[C@@H](CCCCN)C(=O)N[C@@H]([C@@H](C)O)C(=O)N1)C(=O)O` [Compound I-25, DOTA-K(-E-Z360)-f[CYwKTC]T-OH], the IC50 at CCK2R [1] stood at 1.36 nM.

Regarding `C[C@@H](O)[C@H](NC(=O)[C@@H]1CSSC[C@H](NC(=O)[C@@H](Cc2ccccc2)NC(=O)[C@H](CCCCNC(=O)CC[C@H](NC(=O)CNC(=O)c2cccc(NC(=O)N[C@@H]3CN(C4CCCCC4)c4ccccc4N(CC(=O)C(C)(C)C)C3=O)c2)C(=O)O)NC(=O)CN2CCN(CC(=O)O)CCN(CC(=O)O)CCN(CC(=O)O)CC2)C(=O)N[C@@H](Cc2ccc(O)cc2)C(=O)N[C@H](Cc2c[nH]c3ccccc23)C(=O)N[C@@H](CCCCN)C(=O)N[C@@H]([C@@H](C)O)C(=O)N1)C(=O)O` [Compound I-26, DOTA-K(-gE-G-Z360)-f[CYwKTC]T-OH], the IC50 on CCK2R [1] was found to be 2.67 nM.

Consider `C[C@@H](O)[C@H](NC(=O)[C@@H]1CSSC[C@H](NC(=O)[C@@H](Cc2ccccc2)NC(=O)[C@H](CCCCNC(=O)COCCOCCNC(=O)[C@H](CCC(=O)O)NC(=O)c2cccc(NC(=O)N[C@@H]3CN(C4CCCCC4)c4ccccc4N(CC(=O)C(C)(C)C)C3=O)c2)NC(=O)CN2CCN(CC(=O)O)CCN(CC(=O)O)CCN(CC(=O)O)CC2)C(=O)N[C@@H](Cc2ccc(O)cc2)C(=O)N[C@H](Cc2c[nH]c3ccccc23)C(=O)N[C@@H](CCCCN)C(=O)N[C@@H]([C@@H](C)O)C(=O)N1)C(=O)O` [Compound I-28, DOTA-K(-OEG-E-Z360)-f[CYwKTC]T-OH], for which the IC50 on CCK2R [1] is 4.84 nM.

Take `C[C@@H](O)[C@H](NC(=O)[C@@H]1CSSC[C@H](NC(=O)[C@@H](Cc2ccccc2)NC(=O)[C@H](CCCCNC(=O)COCCOCCNC(=O)COCCOCCNC(=O)[C@H](CCC(=O)O)NC(=O)c2cccc(NC(=O)N[C@@H]3CN(C4CCCCC4)c4ccccc4N(CC(=O)C(C)(C)C)C3=O)c2)NC(=O)CN2CCN(CC(=O)O)CCN(CC(=O)O)CCN(CC(=O)O)CC2)C(=O)N[C@@H](Cc2ccc(O)cc2)C(=O)N[C@H](Cc2c[nH]c3ccccc23)C(=O)N[C@@H](CCCCN)C(=O)N[C@@H]([C@@H](C)O)C(=O)N1)C(=O)O` [Compound I-29, DOTA-K(-OEG-OEG-E-Z360)-f[CYwKTC]T-OH]: at CCK2R [1], the IC50 was determined as 0.46 nM.

Compound `C[C@@H](O)[C@H](NC(=O)[C@@H]1CSSC[C@H](NC(=O)[C@@H](Cc2ccccc2)NC(=O)COCCOCCNC(=O)[C@H](CCCCNC(=O)COCCOCCNC(=O)[C@H](CCC(=O)O)NC(=O)c2cccc(NC(=O)N[C@@H]3CN(C4CCCCC4)c4ccccc4N(CC(=O)C(C)(C)C)C3=O)c2)NC(=O)CN2CCN(CC(=O)O)CCN(CC(=O)O)CCN(CC(=O)O)CC2)C(=O)N[C@@H](Cc2ccc(O)cc2)C(=O)N[C@H](Cc2c[nH]c3ccccc23)C(=O)N[C@@H](CCCCN)C(=O)N[C@@H]([C@@H](C)O)C(=O)N1)C(=O)O` [Compound I-30, DOTA-K(-OEG-E-Z360)-OEG-f[CYwKTC]T-OH] had an IC50 on CCK2R [1] of 1.28 nM.

As to `C[C@@H](O)[C@H](NC(=O)[C@@H]1CSSC[C@H](NC(=O)[C@@H](Cc2ccccc2)NC(=O)COCCOCCNC(=O)[C@H](CCCCNC(=O)c2cccc(NC(=O)N[C@@H]3CN(C4CCCCC4)c4ccccc4N(CC(=O)C(C)(C)C)C3=O)c2)NC(=O)CN2CCN(CC(=O)O)CCN(CC(=O)O)CCN(CC(=O)O)CC2)C(=O)N[C@@H](Cc2ccc(O)cc2)C(=O)N[C@H](Cc2c[nH]c3ccccc23)C(=O)N[C@@H](CCCCN)C(=O)N[C@@H]([C@@H](C)O)C(=O)N1)C(=O)O` [Compound I-37, DOTA-K(Z360)-OEG-f[CYwKTC]T-OH], the figures for the IC50 on CCK2R [1], at SSTR2 and on CCK2R [2] were 10.7 nM, 3.01 nM and 4.2 nM, respectively. Besides, the tissue uptake at 24 h in “in vivo” (uptake Kidney) came out at 7.79 %ID/g; in the data set “in vivo” (uptake Liver) it was 2.4 %ID/g; in “in vivo” (uptake Pancreas) it was 0.68 %ID/g; in “in vivo” (uptake Spleen), 0.2 %ID/g; in “in vivo” (uptake Stomach), 2.58 %ID/g; in the data set “in vivo” (uptake Tumor), 23.1 %ID/g.

On to `C[C@@H](O)[C@H](NC(=O)[C@@H]1CSSC[C@H](NC(=O)[C@@H](Cc2ccccc2)NC(=O)COCCOCCNC(=O)COCCOCCNC(=O)CC[C@H](NC(=O)[C@H](CCCCNC(=O)c2cccc(NC(=O)CC3CN(C4CCCCC4)c4ccccc4N(CC(=O)C(C)(C)C)C3=O)c2)NC(=O)CN2CCN(CC(=O)O)CCN(CC(=O)O)CCN(CC(=O)O)CC2)C(=O)O)C(=O)N[C@@H](Cc2ccc(O)cc2)C(=O)N[C@H](Cc2c[nH]c3ccccc23)C(=O)N[C@@H](CCCCN)C(=O)N[C@@H]([C@@H](C)O)C(=O)N1)C(=O)O` (some centres unmarked) [Compound I-74, DOTA-K(Z360)-gGlu-OEG-OEG-f]CYwKTC]T-OH], for which the IC50 at CCK2R [3] was found to be 56.7 nM.
